For six substances, EC50 results are on record in paper PMC4497658.

By EC50 is commonly meant the concentration at which the effect is half-maximal.

The assay has as its target IFNAR receptors (IFNAR1 and IFNAR2) on WISH cells (human (endogenous in WISH)) (UniProt P17181). Briefly: radioligand binding; in situ competition on WISH cells: ^125I-labeled wild type IFNα2 (200,000 cpm/well) with unlabeled IFN at ten concentrations (4-fold steps from 200 nM for the antagonists, 10 nM for IFNα2-α8tail), 1 hr at room temperature, culture medium + 0.1% sodium azide.
As to “IFN-1ant (IFNα2 R120E with the α8-tail) (ligand)”, the EC50 was determined as 0.5 nM.

In the case of IFN-1ant_(N65A) (ligand), the 50% effective concentration (EC50) was 1.7 nM.

As for IFN-1ant_(Y85A) (ligand), the EC50 worked out at 2 nM.

IFN-1ant_(Y85M) (ligand): the EC50 was 0.8 nM.

Consider IFNα2-α8tail (ligand), for which the EC50 was found to be 0.15 nM.

In the case of “YNS (IFNα2 N57Y, E58N and Q61S) (ligand)”, the EC50 was determined as 0.001 nM.
